Earlier results, collected in publication PMC12475976.

Target: SREBF1 (Homo sapiens) (UniProt P36956)
Sequence (P36956 whole entry): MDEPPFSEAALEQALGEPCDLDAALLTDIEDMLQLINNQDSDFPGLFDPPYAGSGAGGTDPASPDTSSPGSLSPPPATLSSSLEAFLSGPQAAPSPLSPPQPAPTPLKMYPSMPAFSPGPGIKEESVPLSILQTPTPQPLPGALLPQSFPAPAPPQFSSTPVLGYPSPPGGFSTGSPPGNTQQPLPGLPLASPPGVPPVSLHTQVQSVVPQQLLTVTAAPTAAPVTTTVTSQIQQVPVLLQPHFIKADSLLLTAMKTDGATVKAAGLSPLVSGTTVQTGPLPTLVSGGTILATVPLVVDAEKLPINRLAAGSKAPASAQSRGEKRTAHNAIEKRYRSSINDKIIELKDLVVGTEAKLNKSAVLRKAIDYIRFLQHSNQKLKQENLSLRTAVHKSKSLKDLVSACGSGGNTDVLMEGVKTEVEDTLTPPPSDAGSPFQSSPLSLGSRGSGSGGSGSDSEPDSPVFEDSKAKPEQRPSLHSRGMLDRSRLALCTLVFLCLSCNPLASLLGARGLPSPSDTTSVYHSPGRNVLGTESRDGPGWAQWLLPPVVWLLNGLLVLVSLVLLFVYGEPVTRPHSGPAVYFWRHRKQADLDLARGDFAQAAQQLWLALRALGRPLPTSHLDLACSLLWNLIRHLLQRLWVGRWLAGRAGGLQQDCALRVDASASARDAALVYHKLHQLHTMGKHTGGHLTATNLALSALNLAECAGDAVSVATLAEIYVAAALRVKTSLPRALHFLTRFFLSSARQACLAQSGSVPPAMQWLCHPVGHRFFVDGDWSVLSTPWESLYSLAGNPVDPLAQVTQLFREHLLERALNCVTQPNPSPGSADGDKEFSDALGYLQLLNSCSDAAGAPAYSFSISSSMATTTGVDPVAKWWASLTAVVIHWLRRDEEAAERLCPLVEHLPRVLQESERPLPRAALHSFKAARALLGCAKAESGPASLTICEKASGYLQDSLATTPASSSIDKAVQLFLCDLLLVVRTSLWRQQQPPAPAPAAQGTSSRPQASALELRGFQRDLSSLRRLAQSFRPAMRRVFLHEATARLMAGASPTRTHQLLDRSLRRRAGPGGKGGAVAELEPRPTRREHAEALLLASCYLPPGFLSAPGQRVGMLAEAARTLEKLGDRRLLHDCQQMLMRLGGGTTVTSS

Chain of Vav2 (P52735 whole entry): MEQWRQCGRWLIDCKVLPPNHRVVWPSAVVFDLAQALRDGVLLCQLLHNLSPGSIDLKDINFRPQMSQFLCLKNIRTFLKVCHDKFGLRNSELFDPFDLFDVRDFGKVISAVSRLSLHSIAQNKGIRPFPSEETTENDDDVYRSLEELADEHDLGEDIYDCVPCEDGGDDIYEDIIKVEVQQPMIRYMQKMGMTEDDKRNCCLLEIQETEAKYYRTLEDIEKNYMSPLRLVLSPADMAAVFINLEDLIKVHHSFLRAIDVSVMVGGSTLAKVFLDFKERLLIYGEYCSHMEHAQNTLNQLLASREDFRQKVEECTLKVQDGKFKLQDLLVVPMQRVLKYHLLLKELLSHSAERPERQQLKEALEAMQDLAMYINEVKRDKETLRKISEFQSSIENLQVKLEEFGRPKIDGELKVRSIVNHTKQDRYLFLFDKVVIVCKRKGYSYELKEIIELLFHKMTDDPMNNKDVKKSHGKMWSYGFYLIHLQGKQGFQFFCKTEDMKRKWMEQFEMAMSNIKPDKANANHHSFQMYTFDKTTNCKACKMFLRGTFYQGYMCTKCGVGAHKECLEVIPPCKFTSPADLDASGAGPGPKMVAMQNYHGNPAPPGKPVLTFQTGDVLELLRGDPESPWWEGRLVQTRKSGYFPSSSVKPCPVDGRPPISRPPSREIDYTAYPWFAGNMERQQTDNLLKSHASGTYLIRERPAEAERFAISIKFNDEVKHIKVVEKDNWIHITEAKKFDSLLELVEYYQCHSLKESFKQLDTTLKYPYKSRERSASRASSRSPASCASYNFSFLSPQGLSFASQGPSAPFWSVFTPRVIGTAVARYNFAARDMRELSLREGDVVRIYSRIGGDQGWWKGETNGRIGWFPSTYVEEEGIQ

For Vav2 (from UniProt P52735), the Kd is given as 8.3 nM.
